In patent US20190023770A1 one finds in vitro IC50 (neutralization of virus infection of MDCK cells) data, which are given here for two molecules.

Assay in all cases: cell-based or functional assay
Experiment [1] has as its target hemagglutinin of influenza A virus H3N2 A/Aichi/2/1968 (influenza A virus A/Aichi/2/1968 (H3N2)) (UniProt P03437).
Experiment [2] has as its target hemagglutinin of influenza A virus H3N2 A/Port Chalmers/1/1973 (influenza A virus A/Port Chalmers/1/1973 (H3N2)).
In experiment [3] the target is hemagglutinin of influenza A virus H3N2 A/Hong Kong/1/1968 (influenza A virus A/Hong Kong/1/1968 (H3N2)) (UniProt Q91MA7).

Positions count from the first letter of the chain named.

B1: monoclonal antibody 39.29 NWPP (antibody, V domains shown)
VH: EVQLVESGGGVVQPGKSLRLSCAASGLTFSSYAVHWVRQAPGKGLEWVTLISYDGANQYYADSVKGRFTISRDNSKNTVYLQMNSLRPEDTAVYYCAVPGPVFGIFPPWSYFDNWGQGILVTVSS
VL: EIVLTQSPATLSVSPGERATLSCRASQVISHNLAWYQQKPGQAPRLLIYGASTRASGIPARFSGSGSGTDYTLTITSLQSEDFAVYYCQHYSNWPPRLTFGGGTKVEIK
On to B1, for which the in vitro IC50 (neutralization of virus infection of MDCK cells) in experiment [1] worked out at 35 nM; in experiment [2], 2.2 nM; in experiment [3] it was 45.1 nM.

B2: monoclonal antibody 39.29 NCv1 (antibody, V domains shown)
VH: B1 VH with E1Q, L18P, L27P
VL: B1 VL with S80P
For B2, the in vitro IC50 (neutralization of virus infection of MDCK cells) in experiment [1] was 35 nM; in experiment [2], 2.9 nM.
